Consider 10 molecules from US11827699 (dated 2023).

One may read the Kd as the constant that tells how readily two partners part at equilibrium. Read a low Kd as higher affinity.

What all share (experiment): SPR
For assay [1], the target named is human FcγRIIIa V158 (human, UniProt P08637).
Assay [2] deals with T1, human FcγRIa (human, UniProt P12314).
T1 chain: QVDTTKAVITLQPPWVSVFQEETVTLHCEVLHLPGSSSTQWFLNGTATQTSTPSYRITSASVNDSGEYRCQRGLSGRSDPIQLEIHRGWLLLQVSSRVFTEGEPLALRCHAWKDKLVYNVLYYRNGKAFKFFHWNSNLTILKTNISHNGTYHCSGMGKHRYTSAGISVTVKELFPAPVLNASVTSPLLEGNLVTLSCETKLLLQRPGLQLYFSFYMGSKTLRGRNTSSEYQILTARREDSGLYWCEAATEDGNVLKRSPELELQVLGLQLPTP

In assay [3] the target is T2, human FcγRIIa H131 (human, UniProt P12318).
T2 chain: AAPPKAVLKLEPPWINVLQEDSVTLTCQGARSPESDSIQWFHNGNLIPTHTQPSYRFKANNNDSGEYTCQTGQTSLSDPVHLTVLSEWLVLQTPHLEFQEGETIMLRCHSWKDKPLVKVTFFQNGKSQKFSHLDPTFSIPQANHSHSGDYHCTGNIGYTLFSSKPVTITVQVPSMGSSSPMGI

Assay [4] concerns the target T3, human FcγRIIb (human, UniProt P31994).
T3 chain: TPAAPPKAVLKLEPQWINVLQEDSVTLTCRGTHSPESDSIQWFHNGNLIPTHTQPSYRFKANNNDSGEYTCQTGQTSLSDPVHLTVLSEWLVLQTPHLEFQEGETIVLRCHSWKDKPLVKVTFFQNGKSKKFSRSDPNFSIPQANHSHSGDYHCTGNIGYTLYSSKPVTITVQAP

human FcγRIIIa V158, sequence (P08637 17-208 F176V): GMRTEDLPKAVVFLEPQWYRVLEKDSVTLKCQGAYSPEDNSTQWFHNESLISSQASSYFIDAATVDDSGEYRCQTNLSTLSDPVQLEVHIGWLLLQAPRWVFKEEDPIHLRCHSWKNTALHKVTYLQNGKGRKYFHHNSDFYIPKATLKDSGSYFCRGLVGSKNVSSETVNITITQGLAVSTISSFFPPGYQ

B1: IL6R-BP493 (antibody)
chain 1: QVQLQESGPGLVKPSETLSLTCAVSGHSISHDHAWSWVRQPPGEGLEWIGFISYSGITNYNPSLQGRVTISRDNSKNTLYLQMNSLRAEDTAVYYCARSLARTTAMDYWGEGTLVTVSSASTKGPSVFPLAPSSKSTSGGTAALGCLVKDYFPEPVTVSWNSGALTSGVHTFPAVLQSSGLYSLSSVVTVPSSSLGTQTYICNVNHKPSNTKVDKKVEPKSCDKTHTCPPCPAPELLGGDSVFLFPPKPKDTLMISRTPEVTCVVIDVAEEDGEVKFNWYVDGVEVHNAKTKPREEQDNSTYRVVSVLTVLHQDWLNGKEYKCKVSNKALPAPIEKTISKAKGQPREPQVYTLPPSRDELTKNQVSLTCLVKGFYPSDIAVEWESNGQPENNYKTTPPVLDSDGSFFLYSKLTVDKSRWQQGNVFSCSVMHEALHNHYTQESLSLSP
chain 2: not shown
On to B1, for which the Kd in assay [1] was 35 µM; in assay [2], 0.00082 µM; in assay [3], 19 µM; in assay [4], 0.021 µM.

B2: IL6R-BP495 (antibody)
chain 1: QVQLQESGPGLVKPSETLSLTCAVSGHSISHDHAWSWVRQPPGEGLEWIGFISYSGITNYNPSLQGRVTISRDNSKNTLYLQMNSLRAEDTAVYYCARSLARTTAMDYWGEGTLVTVSSASTKGPSVFPLAPSSKSTSGGTAALGCLVKDYFPEPVTVSWNSGALTSGVHTFPAVLQSSGLYSLSSVVTVPSSSLGTQTYICNVNHKPSNTKVDKKVEPKSCDKTHTCPPCPAPELLGDDSVFLFPPKPKDTLMISRTPEVTCVVVDVGEEDGEVKFNWYVDGVEVHNAKTKPREEQDNSTYRVVSVLTVLHQDWLNGKEYKCKVSNKALPRPIEKTISKAKGQPREPQVYTLPPSRDELTKNQVSLTCLVKGFYPSDIAVEWESNGQPENNYKTTPPVLDSDGSFFLYSKLTVDKSRWQQGNVFSCSVMHEALHNHYTQESLSLSP
chain 2: not shown
In the case of B2, the Kd in assay [1] was determined as 33 µM; in assay [2] it was 0.0083 µM; in assay [3] it was 12 µM; in assay [4] it was 0.0097 µM.

B3: IL6R-BP423 (antibody)
chain 1: QVQLQESGPGLVKPSETLSLTCAVSGHSISHDHAWSWVRQPPGEGLEWIGFISYSGITNYNPSLQGRVTISRDNSKNTLYLQMNSLRAEDTAVYYCARSLARTTAMDYWGEGTLVTVSSASTKGPSVFPLAPSSKSTSGGTAALGCLVKDYFPEPVTVSWNSGALTSGVHTFPAVLQSSGLYSLSSVVTVPSSSLGTQTYICNVNHKPSNTKVDKKVEPKSCDKTHTCPPCPAPDLLGDDSVFLFPPKPKDTLMISRTPEVTCVVVDVAEEDGEVKFNWYVDGVEVHNAKTKPREEQYNSTYRVVSVLTVLHQDWLNGKEYKCKVSNKALPRPIEKTISKAKGQPREPQVYTLPPSRDELTKNQVSLTCLVKGFYPSDIAVEWESNGQPENNYKTTPPVLDSDGSFFLYSKLTVDKSRWQQGNVFSCSVMHEALHNHYTQESLSLSP
chain 2: not shown
B3 had a dissociation constant (Kd) in assay [3] of 2 µM.

B4: IL6R-BP501 (antibody)
chain 1: QVQLQESGPGLVKPSETLSLTCAVSGHSISHDHAWSWVRQPPGEGLEWIGFISYSGITNYNPSLQGRVTISRDNSKNTLYLQMNSLRAEDTAVYYCARSLARTTAMDYWGEGTLVTVSSASTKGPSVFPLAPSSKSTSGGTAALGCLVKDYFPEPVTVSWNSGALTSGVHTFPAVLQSSGLYSLSSVVTVPSSSLGTQTYICNVNHKPSNTKVDKKVEPKSCDKTHTCPPCPAPELLGDDSVFLFPPKPKDTLMISRTPEVTCVVIDVAEEDGEVKFNWYVDGVEVHNAKTKPREEQYNSTYRVVSVLTVLHQDWLNGKEYKCKVSNKALPAPIEKTISKAKGQPREPQVYTLPPSRDELTKNQVSLTCLVKGFYPSDIAVEWESNGQPENNYKTTPPVLDSDGSFFLYSKLTVDKSRWQQGNVFSCSVMHEALHNHYTQESLSLSP
chain 2: not shown
For the molecule B4, the Kd turned out to be 19 µM in assay [1], 0.0021 µM in assay [2], 14 µM in assay [3] and 0.025 µM in assay [4].

B5: IL6R-BP436 (antibody)
chain 1: QVQLQESGPGLVKPSETLSLTCAVSGHSISHDHAWSWVRQPPGEGLEWIGFISYSGITNYNPSLQGRVTISRDNSKNTLYLQMNSLRAEDTAVYYCARSLARTTAMDYWGEGTLVTVSSASTKGPSVFPLAPSSKSTSGGTAALGCLVKDYFPEPVTVSWNSGALTSGVHTFPAVLQSSGLYSLSSVVTVPSSSLGTQTYICNVNHKPSNTKVDKKVEPKSCDKTHTCPPCPAPDLLGDDSVFLFPPKPKDTLMISRTPEVTCVVVDVAEEDGEVKFNWYVDGVEVHNAKTKPREEQDNSTYRVVSVLTVLHQDWLNGKEYKCKVSNKALPRPTEKTISKAKGQPREPQVYTLPPSRDELTKNQVSLTCLVKGFYPSDIAVEWESNGQPENNYKTTPPVLDSDGSFFLYSKLTVDKSRWQQGNVFSCSVMHEALHNHYTQESLSLSP
chain 2: not shown
As to B5, binding in assay [1] was characterised by a dissociation constant (Kd) of 23 µM.

B6: IL6R-BP430 (antibody)
chain 1: QVQLQESGPGLVKPSETLSLTCAVSGHSISHDHAWSWVRQPPGEGLEWIGFISYSGITNYNPSLQGRVTISRDNSKNTLYLQMNSLRAEDTAVYYCARSLARTTAMDYWGEGTLVTVSSASTKGPSVFPLAPSSKSTSGGTAALGCLVKDYFPEPVTVSWNSGALTSGVHTFPAVLQSSGLYSLSSVVTVPSSSLGTQTYICNVNHKPSNTKVDKKVEPKSCDKTHTCPPCPAPDLLGDDSVFLFPPKPKDTLMISRTPEVTCVVVDLGEEDGEVKFNWYVDGVEVHNAKTKPREEQYNSTYRVVSVLTVLHQDWLNGKEYKCKVSNKALPRPIEKTISKAKGQPREPQVYTLPPSRDELTKNQVSLTCLVKGFYPSDIAVEWESNGQPENNYKTTPPVLDSDGSFFLYSKLTVDKSRWQQGNVFSCSVMHEALHNHYTQESLSLSP
chain 2: not shown
For B6, binding in assay [3] was put at a Kd of 38 µM.

B7: IL6R-BP266 (antibody)
chain 1: QVQLQESGPGLVKPSETLSLTCAVSGHSISHDHAWSWVRQPPGEGLEWIGFISYSGITNYNPSLQGRVTISRDNSKNTLYLQMNSLRAEDTAVYYCARSLARTTAMDYWGEGTLVTVSSASTKGPSVFPLAPSSKSTSGGTAALGCLVKDYFPEPVTVSWNSGALTSGVHTFPAVLQSSGLYSLSSVVTVPSSSLGTQTYICNVNHKPSNTKVDKKVEPKSCDKTHTCPPCPAPDLLGDDSVFLFPPKPKDTLMISRTPEVTCVVVDVSEEDGEVKFNWYVDGVEVHNAKTKPREEQYNSTYRVVSVLTVLHQDWLNGKEYKCKVSNKALPRPIEKTISKAKGQPREPQVYTLPPSRDELTKNQVSLTCLVKGFYPSDIAVEWESNGQPENNYKTTPPVLDSDGSFFLYSKLTVDKSRWQQGNVFSCSVMHEALHNHYTQESLSLSP
chain 2: not shown
As to B7, the dissociation constant (Kd) in assay [1] was 40 µM; in assay [3] it was 13 µM.

B8: IL6R-BP435 (antibody)
chain 1: QVQLQESGPGLVKPSETLSLTCAVSGHSISHDHAWSWVRQPPGEGLEWIGFISYSGITNYNPSLQGRVTISRDNSKNTLYLQMNSLRAEDTAVYYCARSLARTTAMDYWGEGTLVTVSSASTKGPSVFPLAPSSKSTSGGTAALGCLVKDYFPEPVTVSWNSGALTSGVHTFPAVLQSSGLYSLSSVVTVPSSSLGTQTYICNVNHKPSNTKVDKKVEPKSCDKTHTCPPCPAPDLLGDDSVFLFPPKPKDTLMISRTPEVTCVVVDVSDEDGEVKFNWYVDGVEVHNAKTKPREEQDNSTYRVVSVLTVLHQDWLNGKEYKCKVSNAALPRPTEKTISKAKGQPREPQVYTLPPSRDELTKNQVSLTCLVKGFYPSDIAVEWESNGQPENNYKTTPPVLDSDGSFFLYSKLTVDKSRWQQGNVFSCSVMHEALHNHYTQESLSLSP
chain 2: not shown
B8 yielded a Kd in assay [2] of 0.001 µM.

B9: IL6R-BP426 (antibody)
chain 1: QVQLQESGPGLVKPSETLSLTCAVSGHSISHDHAWSWVRQPPGEGLEWIGFISYSGITNYNPSLQGRVTISRDNSKNTLYLQMNSLRAEDTAVYYCARSLARTTAMDYWGEGTLVTVSSASTKGPSVFPLAPSSKSTSGGTAALGCLVKDYFPEPVTVSWNSGALTSGVHTFPAVLQSSGLYSLSSVVTVPSSSLGTQTYICNVNHKPSNTKVDKKVEPKSCDKTHTCPPCPAPDLLGDDSVFLFPPKPKDTLMISRTPEVTCVVVDVAEDDGEVKFNWYVDGVEVHNAKTKPREEQYNSTYRVVSVLTVLHQDWLNGKEYKCKVSNKALPRPIEKTISKAKGQPREPQVYTLPPSRDELTKNQVSLTCLVKGFYPSDIAVEWESNGQPENNYKTTPPVLDSDGSFFLYSKLTVDKSRWQQGNVFSCSVMHEALHNHYTQESLSLSP
chain 2: not shown
Consider B9, for which the figures for the Kd in assay [2] and in assay [3] were 0.001 µM and 19 µM, respectively.

B10: IL6R-BP510 (antibody)
chain 1: QVQLQESGPGLVKPSETLSLTCAVSGHSISHDHAWSWVRQPPGEGLEWIGFISYSGITNYNPSLQGRVTISRDNSKNTLYLQMNSLRAEDTAVYYCARSLARTTAMDYWGEGTLVTVSSASTKGPSVFPLAPSSKSTSGGTAALGCLVKDYFPEPVTVSWNSGALTSGVHTFPAVLQSSGLYSLSSVVTVPSSSLGTQTYICNVNHKPSNTKVDKKVEPKSCDKTHTCPPCPAPELLGDDSVFLFPPKPKDTLMISRTPEVTCVVIDVAEEDGPVKFNWYVDGVEVHNAKTKPREEQYNSTYRVVSVLTVLHQDWLNGKEYKCKVSNKALPRPIEKTISKAKGQPREPQVYTLPPSRDELTKNQVSLTCLVKGFYPSDIAVEWESNGQPENNYKTTPPVLDSDGSFFLYSKLTVDKSRWQQGNVFSCSVMHEALHNHYTQESLSLSP
chain 2: not shown
B10: the Kd in assay [1] was 25 µM; in assay [2], 0.006 µM; in assay [3], 4 µM; in assay [4], 0.0038 µM.
